In patent US20260193356A1 one finds Percentage of Positive Cells (%) data, which are given here for two substances.

For test [1], the target named is mouse (Mus musculu) PDL1 (mPDL1) expressed on CHO-S cells (CHO-S-mPDL1) (mouse) (UniProt Q9EP73). In words: flow cytometry on CHO-S-mPDL1 cells, secondary antibody only; 1 µg/mL.
For test [2] the target is unchanged. In words: flow cytometry on CHO-S-mPDL1 cells, secondary antibody only; 0.1 µg/mL.
Test [3] deals with monkey (Macaca fascicularis) PDL1 (fasPDL1) expressed on CHO-S cells (CHO-S-fasPDL1) (monkey (Macaca fascicularis)). In words: flow cytometry on CHO-S-fasPDL1 cells, secondary antibody only; 1 µg/mL.
Test [4] concerns the target dog (Canis lupus) PDL1 (dPDL1) expressed on CHO-S cells (CHO-S-dPDL1) (dog (Canis lupus)). The experiment in a line: flow cytometry on CHO-S-dPDL1 cells, secondary antibody only; 1 µg/mL. (Flow cytometry measures light scatter and fluorescence of single cells or particles in a stream.)
In test [5] the target is monkey (Macaca fascicularis) PDL1 (fasPDL1) expressed on CHO-S cells (CHO-S-fasPDL1) (monkey (Macaca fascicularis)). In words: flow cytometry on CHO-S-fasPDL1 cells, secondary antibody only; 0.1 µg/mL.
Test [6] deals with human PDL1 (hPDL1) expressed on CHO-S cells (CHO-S-hPDL1) (human) (UniProt Q9NZQ7). In words: flow cytometry on CHO-S-hPDL1 cells, secondary antibody only; 0.1 µg/mL.
Test [7] shares this target. In words: flow cytometry on CHO-S-hPDL1 cells, secondary antibody only; 1 µg/mL.
Test [8] addresses dog (Canis lupus) PDL1 (dPDL1) expressed on CHO-S cells (CHO-S-dPDL1) (dog (Canis lupus)). The experiment in a line: flow cytometry on CHO-S-dPDL1 cells, secondary antibody only; 0.1 µg/mL.
Test [9] concerns the target monkey (Macaca fascicularis) PDL1 (fasPDL1) expressed on CHO-S cells (CHO-S-fasPDL1) (monkey (Macaca fascicularis)). In words: flow cytometry on CHO-S-fasPDL1 cells; antibody 1 µg/mL.
In test [10] the target is human PDL1 (hPDL1) expressed on CHO-S cells (CHO-S-hPDL1) (human) (UniProt Q9NZQ7). In words: flow cytometry on CHO-S-hPDL1 cells; antibody 1 µg/mL.
Test [11] deals with mouse (Mus musculu) PDL1 (mPDL1) expressed on CHO-S cells (CHO-S-mPDL1) (mouse) (UniProt Q9EP73). In words: flow cytometry on CHO-S-mPDL1 cells; antibody 0.1 µg/mL.
The target in test [12] is dog (Canis lupus) PDL1 (dPDL1) expressed on CHO-S cells (CHO-S-dPDL1) (dog (Canis lupus)). The experiment in a line: flow cytometry on CHO-S-dPDL1 cells; antibody 0.1 µg/mL.
Test [13] has as its target mouse (Mus musculu) PDL1 (mPDL1) expressed on CHO-S cells (CHO-S-mPDL1) (mouse) (UniProt Q9EP73). The experiment in a line: flow cytometry on CHO-S-mPDL1 cells; antibody 1 µg/mL.
In test [14] the target is monkey (Macaca fascicularis) PDL1 (fasPDL1) expressed on CHO-S cells (CHO-S-fasPDL1) (monkey (Macaca fascicularis)). The experiment in a line: flow cytometry on CHO-S-fasPDL1 cells; antibody 0.1 µg/mL.
In test [15] the target is human PDL1 (hPDL1) expressed on CHO-S cells (CHO-S-hPDL1) (human) (UniProt Q9NZQ7). The experiment in a line: flow cytometry on CHO-S-hPDL1 cells; antibody 0.1 µg/mL.
The target in test [16] is dog (Canis lupus) PDL1 (dPDL1) expressed on CHO-S cells (CHO-S-dPDL1) (dog (Canis lupus)). In words: flow cytometry on CHO-S-dPDL1 cells; antibody 1 µg/mL.

Sequence of mouse (Mus musculu) PDL1 (mPDL1) expressed on CHO-S cells (CHO-S-mPDL1) (mouse) (Q9EP73 19-290 limits assumed): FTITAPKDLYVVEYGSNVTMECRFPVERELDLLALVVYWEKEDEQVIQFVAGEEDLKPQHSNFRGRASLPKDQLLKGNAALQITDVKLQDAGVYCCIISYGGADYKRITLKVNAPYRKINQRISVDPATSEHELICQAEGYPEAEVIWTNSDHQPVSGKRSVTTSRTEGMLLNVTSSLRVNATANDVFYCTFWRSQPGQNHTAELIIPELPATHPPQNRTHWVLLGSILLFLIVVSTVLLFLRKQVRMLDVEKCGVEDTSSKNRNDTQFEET
Sequence of monkey (Macaca fascicularis) PDL1 (fasPDL1) expressed on CHO-S cells (CHO-S-fasPDL1) (monkey (Macaca fascicularis)) (Q9NZQ7 other isoform, or with tags, fused parts or gaps limits assumed): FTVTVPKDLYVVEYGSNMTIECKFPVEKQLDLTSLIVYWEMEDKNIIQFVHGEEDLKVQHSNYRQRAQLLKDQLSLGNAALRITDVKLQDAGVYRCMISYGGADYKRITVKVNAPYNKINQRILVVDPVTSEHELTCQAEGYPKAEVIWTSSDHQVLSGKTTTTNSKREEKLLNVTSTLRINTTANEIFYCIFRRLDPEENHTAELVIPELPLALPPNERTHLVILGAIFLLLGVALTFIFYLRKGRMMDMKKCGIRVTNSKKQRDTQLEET
Sequence of human PDL1 (hPDL1) expressed on CHO-S cells (CHO-S-hPDL1) (human) (Q9NZQ7 19-290 limits assumed): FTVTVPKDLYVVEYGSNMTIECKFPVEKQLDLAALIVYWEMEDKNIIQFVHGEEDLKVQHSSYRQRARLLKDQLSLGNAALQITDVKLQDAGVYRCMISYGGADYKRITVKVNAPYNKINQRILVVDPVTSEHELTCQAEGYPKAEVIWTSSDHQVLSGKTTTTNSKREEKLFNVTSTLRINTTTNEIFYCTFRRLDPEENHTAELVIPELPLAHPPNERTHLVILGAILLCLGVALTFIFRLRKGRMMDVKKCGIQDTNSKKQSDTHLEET
Sequence of dog (Canis lupus) PDL1 (dPDL1) expressed on CHO-S cells (CHO-S-dPDL1) (dog (Canis lupus)) (chain, as listed by the source limits assumed, form in doubt): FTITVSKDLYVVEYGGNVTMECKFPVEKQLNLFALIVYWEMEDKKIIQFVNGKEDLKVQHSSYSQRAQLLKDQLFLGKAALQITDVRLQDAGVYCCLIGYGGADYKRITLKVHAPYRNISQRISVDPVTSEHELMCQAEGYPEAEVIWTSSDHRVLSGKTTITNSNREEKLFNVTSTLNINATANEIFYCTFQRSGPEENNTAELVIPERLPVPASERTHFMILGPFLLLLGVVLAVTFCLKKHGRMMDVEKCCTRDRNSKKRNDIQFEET

With “secondary antibody anti-hIgG-Fc-Alex Flour 647 (RL1-H) (Jackson ImmunoResearch Laboratories, Inc., 109-606-170)”, the Percentage of Positive Cells (%) came to 2.31% in test [1]; 1.04% in [2]; 2.34% in [3]; 1.76% in [4]; 1.38% in [5]; 1.48% in [6]. In addition, the values for the Percentage of Positive Cells (%) in test [7] and in test [8] were 1.13% and 1.68%, respectively.

On to “ISO (isotype control, antibody with the same IgG1 subtype but targeting an unrelated target)”, for which the Percentage of Positive Cells (%) in test [9] was determined as 2.53%; in test [10], 3.05%; in [11], 2.26%; in test [12], 14.2%; in test [13], 3.52%; in test [14], 1.87%. In addition, the Percentage of Positive Cells (%) in test [15] came out at 2.01%; in [16] it was 4.28%.
